Test results as given in patent publication US20120076780A1.
Like-named read-outs stand apart in the source and are kept apart here.

Columns and labels:
[1] = target: ErbB-1 (EGFR) on human cancer cells (SCC-1, SCC-9, C1-1 clone 3, C1-1 clone 7) (human) (UniProt P00533); test: cell-based or functional assay
[2] = target: ErbB2 on human tumor cells (SKBR3, A431, T47D, MCF7, MDA-MB231) (human) (UniProt P04626); test: cell-based or functional assay
[3] = target: ErbB-1 (EGFR) on human cancer cells (SCC-1, SCC-9, C1-1 clone 3, C1-1 clone 7) (human) (UniProt P00533); test: cell-based or functional assay; remark: listed apart in the source
[4] = target: ErbB-1 (EGFR) on human cancer cells (SCC-1, SCC-9, C1-1 clone 3, C1-1 clone 7) (human) (UniProt P00533); test: cell-based or functional assay; remark: listed apart in the source
[5] = target: MUC1, secreted isoform from conditioned medium of MUC1-transfected DA3 cells (UniProt P15941); test: ELISA on coated MUC1 conditioned medium; apparent affinity from the half-maximal binding signal
[6] = target: MUC1 on cells (T47D, MCF7, DA3-MUC1) (human) (UniProt P15941); test: whole-cell ELISA on T47D cells; apparent affinity from the half-maximal binding signal
[7] = target: ErbB2 on human tumor cells (SKBR3, A431, T47D, MCF7, MDA-MB231) (human) (UniProt P04626); test: whole-cell ELISA on SKBR3 cells, anti-PE detection, after 24 h at 37 C in 100% human serum

## cross-linked cetuximab-ZZ-PE38 immunotoxin complex
[1]
  IC50, cell survival, XTT assay, SCC-1 cells: 7.54 ng/mL

## scFv(FRP5)-ETA
[2]
  IC50 (pM), cell killing, MTT assay, A431 cells: 52 pM

## cetuximab-ZZ-PE38 complex (non-cross linked)
[3]
  IC50, cell survival, XTT assay, SCC-1 cells: 0.47 ng/mL
  percent of SCC-1 cells killed at 0.001 µg/ml of immunotoxin complex: 80%
[4]
  IC50, cell survival, XTT assay, C1-1 prostate cancer cells clone 3: 12 ng/mL
  IC50, cell survival, XTT assay, C1-1 prostate cancer cells clone 7: 38 ng/mL
  IC50, cell survival, XTT assay, SCC-1 cells: 0.261 ng/mL
  IC50, cell survival, XTT assay, SCC-9 cells: 0.073 ng/mL
[1]
  IC50, cell survival, XTT assay, SCC-1 cells: 0.31 ng/mL

## murine H23 mAb (antibody)
[5]
  Kd: 200 pM
[6]
  Kd: 250 pM

## chimeric H23 IgG1 (from UniProt P01857 1-330) (antibody)
[5]
  Kd: 300 pM
[6]
  Kd: 300 pM

## chFRP5-ZZ-PE38 immunoconjugate (from UniProt P01857 1-330)
[2]
  IC50 (ng/ml), cell killing, MTT assay 48 h, MCF7 cells: 600 ng/mL
  IC50 (ng/ml), cell killing, MTT assay 48 h, MDA-MB231 cells: > 10000 ng/mL
  IC50 (ng/ml), cell killing, MTT assay 48 h, T47D cells: 1000 ng/mL
  IC50 (pM), cell killing, MTT assay, A431 cells: 10 pM
  IC50 (pM), cell killing, MTT assay, MCF7 cells: 300 pM
[7]
  decrease of binding activity: 17%
